Sequences and labels used below:
B1: C189 (C086-LinkerX-IL-18Rα D3 without glycosylation sites-His6; SEQ ID NO: 75) (ligand)
chain: YFGKLKSKLSIIRNLNDQVLFIDQGNRPLFEDMTDSDARDNAPRTIFIISMYADSQPRGMAVAISVKCEKISTLSAENKIISFKEMNPPDNIKDTKSDIIFFQRSVPGHDNKMQFESSSYEGYFLAAEKERDLFKLILKKEDELGDRSIMFTVQNESGGPGPAGMKGLPGSNIVPVLLGPKLNHVAVELGKNVRLDCSALLNEEDVIYWMFGEEDGSDPNIHEEKEMRIMTPEGKWHASKVLRIENIGESNLNVLYDCTVASTGGTDTKSFILVRKADHHHHHH
B2: C127 (Propeptide-LinkerX-C086; SEQ ID NO: 69) (ligand)
chain: MAAEPVEDNCINFVAMKFIDNTLYFIAEDDENLESDSGGPGPAGMKGLPGSYFGKLKSKLSIIRNLNDQVLFIDQGNRPLFEDMTDSDARDNAPRTIFIISMYADSQPRGMAVAISVKCEKISTLSAENKIISFKEMNPPDNIKDTKSDIIFFQRSVPGHDNKMQFESSSYEGYFLAAEKERDLFKLILKKEDELGDRSIMFTVQNED
B3: C086 (SEQ ID NO: 30; E6K, V11I, C38A, K53A, T63A, C76A, C127A) (ligand)
chain: YFGKLKSKLSIIRNLNDQVLFIDQGNRPLFEDMTDSDARDNAPRTIFIISMYADSQPRGMAVAISVKCEKISTLSAENKIISFKEMNPPDNIKDTKSDIIFFQRSVPGHDNKMQFESSSYEGYFLAAEKERDLFKLILKKEDELGDRSIMFTVQNED
B4: C191 (C086-PLGLAG linker-IL-18Rα D3-His6; SEQ ID NO: 76) (ligand)
chain: YFGKLKSKLSIIRNLNDQVLFIDQGNRPLFEDMTDSDARDNAPRTIFIISMYADSQPRGMAVAISVKCEKISTLSAENKIISFKEMNPPDNIKDTKSDIIFFQRSVPGHDNKMQFESSSYEGYFLAAEKERDLFKLILKKEDELGDRSIMFTVQNESGGPLGLAGGSNIVPVLLGPKLNHVAVELGKNVRLNCSALLNEEDVIYWMFGEENGSDPNIHEEKEMRIMTPEGKWHASKVLRIENIGESNLNVLYNCTVASTGGTDTKSFILVRKADHHHHHH
B5: C136 (C086-GGSGG-IL-18Rα D3-His6, non-cleavable control; SEQ ID NO: 77) (ligand)
chain: YFGKLKSKLSIIRNLNDQVLFIDQGNRPLFEDMTDSDARDNAPRTIFIISMYADSQPRGMAVAISVKCEKISTLSAENKIISFKEMNPPDNIKDTKSDIIFFQRSVPGHDNKMQFESSSYEGYFLAAEKERDLFKLILKKEDELGDRSIMFTVQNEGGSGGSNIVPVLLGPKLNHVAVELGKNVRLNCSALLNEEDVIYWMFGEENGSDPNIHEEKEMRIMTPEGKWHASKVLRIENIGESNLNVLYNCTVASTGGTDTKSFILVRKADHHHHHH
B6: C185 (Propeptide-PLG-C086; SEQ ID NO: 70) (ligand)
chain: MAAEPVEDNCINFVAMKFIDNTLYFIAEDDENLESDPLGYFGKLKSKLSIIRNLNDQVLFIDQGNRPLFEDMTDSDARDNAPRTIFIISMYADSQPRGMAVAISVKCEKISTLSAENKIISFKEMNPPDNIKDTKSDIIFFQRSVPGHDNKMQFESSSYEGYFLAAEKERDLFKLILKKEDELGDRSIMFTVQNED
B7: C137 (C086-GGGGSGGGGSGGGG-IL-18Rα D3-His6, non-cleavable control; SEQ ID NO: 78) (ligand)
chain: YFGKLKSKLSIIRNLNDQVLFIDQGNRPLFEDMTDSDARDNAPRTIFIISMYADSQPRGMAVAISVKCEKISTLSAENKIISFKEMNPPDNIKDTKSDIIFFQRSVPGHDNKMQFESSSYEGYFLAAEKERDLFKLILKKEDELGDRSIMFTVQNEGGGGSGGGGSGGGGSNIVPVLLGPKLNHVAVELGKNVRLNCSALLNEEDVIYWMFGEENGSDPNIHEEKEMRIMTPEGKWHASKVLRIENIGESNLNVLYNCTVASTGGTDTKSFILVRKADHHHHHH
B8: C172 (C086-LinkerX-IL-18Rα D3-His6; SEQ ID NO: 73) (ligand)
chain: B1 chain with D196N, D215N, D257N
B9: C187 (Propeptide-PLGLAG-C086; SEQ ID NO: 72) (ligand)
chain: MAAEPVEDNCINFVAMKFIDNTLYFIAEDDENLESDPLGLAGYFGKLKSKLSIIRNLNDQVLFIDQGNRPLFEDMTDSDARDNAPRTIFIISMYADSQPRGMAVAISVKCEKISTLSAENKIISFKEMNPPDNIKDTKSDIIFFQRSVPGHDNKMQFESSSYEGYFLAAEKERDLFKLILKKEDELGDRSIMFTVQNED
B10: C190 (Propeptide-C086, non-cleavable control; SEQ ID NO: 68) (ligand)
chain: MAAEPVEDNCINFVAMKFIDNTLYFIAEDDENLESDYFGKLKSKLSIIRNLNDQVLFIDQGNRPLFEDMTDSDARDNAPRTIFIISMYADSQPRGMAVAISVKCEKISTLSAENKIISFKEMNPPDNIKDTKSDIIFFQRSVPGHDNKMQFESSSYEGYFLAAEKERDLFKLILKKEDELGDRSIMFTVQNED
B11: C190 + MMP9 (ligand)
chain: B10 chain
B12: IL-18 polypeptide SEQ ID NO: 34 (E06K, K53A, S55A) (ligand)
chain: B3 chain with I11V, A38C, S55A, A63T, A76C, A127C
B13: C167 (V11I, C38A, C76A, S105I, C127A) (ligand)
chain: B3 chain with K6E, A53K, A63T, S105I
B14: C168 (V11I, C38A, C76A, S105K, C127A) (ligand)
chain: B3 chain with K6E, A53K, A63T, S105K

The source of these data is patent US20240116997A1 (BRIGHT PEAK THERAPEUTICS, published 2024).

Where a chain is given by its changes, count along the chain named. Numbers in names are those of the source.

One assay concerns the target T1, IL-18 receptor (IL-18Rαβ) on cells (UniProt Q13478 19-541; O95256 20-599, limits assumed).
T1 sequence (looked up) 1: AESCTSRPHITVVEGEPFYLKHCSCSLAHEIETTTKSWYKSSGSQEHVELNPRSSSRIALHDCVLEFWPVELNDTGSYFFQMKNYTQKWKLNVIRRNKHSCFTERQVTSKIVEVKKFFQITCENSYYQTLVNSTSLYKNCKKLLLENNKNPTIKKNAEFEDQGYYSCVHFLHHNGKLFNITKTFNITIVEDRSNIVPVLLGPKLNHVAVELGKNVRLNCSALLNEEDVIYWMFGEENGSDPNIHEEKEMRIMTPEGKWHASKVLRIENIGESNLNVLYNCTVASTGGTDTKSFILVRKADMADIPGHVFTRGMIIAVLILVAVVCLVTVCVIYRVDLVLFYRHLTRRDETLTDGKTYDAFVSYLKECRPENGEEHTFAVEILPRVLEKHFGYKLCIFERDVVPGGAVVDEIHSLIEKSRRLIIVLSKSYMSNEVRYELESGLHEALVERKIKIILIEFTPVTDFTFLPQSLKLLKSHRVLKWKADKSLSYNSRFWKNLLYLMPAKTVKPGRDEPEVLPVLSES
T1 sequence (looked up) 2: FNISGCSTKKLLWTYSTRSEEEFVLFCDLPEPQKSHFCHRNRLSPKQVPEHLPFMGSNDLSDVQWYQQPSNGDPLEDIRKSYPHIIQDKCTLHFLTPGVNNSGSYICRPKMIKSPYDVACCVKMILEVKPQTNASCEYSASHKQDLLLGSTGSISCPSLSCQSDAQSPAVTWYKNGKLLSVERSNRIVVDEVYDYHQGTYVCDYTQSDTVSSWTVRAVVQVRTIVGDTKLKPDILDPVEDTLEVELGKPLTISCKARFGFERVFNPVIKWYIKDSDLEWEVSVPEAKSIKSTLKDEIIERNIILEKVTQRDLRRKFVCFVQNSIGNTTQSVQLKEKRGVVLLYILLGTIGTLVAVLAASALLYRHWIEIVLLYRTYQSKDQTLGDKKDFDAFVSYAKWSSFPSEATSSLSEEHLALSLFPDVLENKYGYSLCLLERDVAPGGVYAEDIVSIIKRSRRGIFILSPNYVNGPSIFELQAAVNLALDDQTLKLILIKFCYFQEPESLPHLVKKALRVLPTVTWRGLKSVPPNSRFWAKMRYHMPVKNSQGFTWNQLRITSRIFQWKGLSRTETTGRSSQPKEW
As to the kind of experiment: cell-based or functional assay.
Consider B1, for which the “Fold potency loss vs C086” value turned out to be 10 fold and the “HEK-blue EC50” value came to 0.43 nM.
For the molecule B2, the “Fold potency loss vs C086” value stood at 7000 fold and the “HEK-blue EC50” value turned out to be 295 nM.
In the case of B3, the “HEK-blue EC50” value was determined as 0.04 nM.
As to B4, the “Fold potency loss vs C086” value was 48 fold and the “HEK-blue EC50” value was 2.02 nM.
For the molecule B5, the “Fold potency loss vs C086” value amounted to 21 fold and the “HEK-blue EC50” value stood at 0.884 nM.
With B6, the “Fold potency loss vs C086” value amounted to 60900 fold and the “HEK-blue EC50” value stood at 2560 nM.
As to B7, the “Fold potency loss vs C086” value turned out to be 49 fold and the “HEK-blue EC50” value is 2.08 nM.
As for B8, the “Fold potency loss vs C086” value was determined as 26 fold and the “HEK-blue EC50” value amounted to 1.09 nM.
On the same counts, the results for B9 are 29400 fold and 1240 nM.
Take B10: the “HEK-blue EC50” value is 404 nM.
Still for that read-out and setting: the result for B11 reads 198 nM.

Another assay addresses T1, IL-18 receptor (IL-18Rαβ) on cells. As to the kind of experiment: cell-based or functional assay. The source holds these as a separate data set.
B3: the “EC50 (pM), HEK-Blue IL-18R reporter assay” value (from here on “EC50 (pM)”) turned out to be 0.034 pM.
B12: the “EC50 (pM)” value came to 272 pM.
B13: the “EC50 (pM)” value was determined as 5.37 pM.
Regarding B14, the “EC50 (pM)” value is 7.73 pM.

For the next assay the target is unchanged. As to the kind of experiment: cell-based or functional assay. The source holds these as a separate data set.
Turning to B3, the “EC50 (nM), IFNγ induction, NK-92 cells” value came to 0.026 nM.
Regarding B12, the “EC50 (nM), IFNγ induction, NK-92 cells” value stood at 0.824 nM.
Take B13: the “EC50 (nM), IFNγ induction, NK-92 cells” value was found to be 0.098 nM.
The same measure, in the same setting: the result for B14 reads 1.37 nM.

The target is the same in another assay. As to the kind of experiment: cell-based or functional assay. The source holds these as a separate data set.
For the molecule B3, the “EC50 (read off the curve), HEK-Blue IL18R reporter” value (“EC50 (read off the curve)” for short) is approximately 0.04 pM.

A further assay shares this target. As to the kind of experiment: cell-based or functional assay. The source holds these as a separate data set.
Regarding B1, the “EC50 (read off the curve)” value was approximately 0.4 pM.
For B3, the “EC50 (read off the curve)” value was approximately 0.04 pM.
As to B4, the “EC50 (read off the curve)” value was approximately 2 pM.
For the molecule B8, the “EC50 (read off the curve)” value is approximately 1 pM.
